Measurements published in US20220098328A1, “ANTIBODIES TO M(H)DM2/4 AND THEIR USE IN DIAGNOSING AND TREATING CANCER” (NomoCan Pharmaceuticals LLC, priority 2017, published 2022).

Tests used:
OVCAR-3 cells = test: Flow cytometry on live (7AAD negative) cells; format: cell-based, human
Experimental: Cells that had been allowed to grow to about 80% confluency in 75 cm^2 tissue culture flasks were released with either EDTA (10 mmols; pH 7.2; 5 min, 37° C.) or Trypsin (Gibco TrypLE Express), washed several times with ice-cold PBS, and blocked for 20 minutes on ice with 5% human serum albumin in PBS (intact, non-permeabilized cells). After establishing viability, the cell number was adjusted to 10^6 cells/ml and kept in ice-cold PBS until staining. Cells were then incubated with primary antibodies NMC-H103 (VH4/VK3) or NMC-C303 (1 μg/ml) for 30 minutes on ice. Following primary antibody incubation, cells were washed 3 times with ice-cold PBS, followed by incubation with goat anti-human PE labeled secondary antibody (Life technologies H10104) on ice for 20 minutes. Cells were then washed 3 times with PBS and incubated with 7AAD (5 μl/[…] of buffer) before flow cytometry analysis using Fortessa 5.

[1] = tested on: human lung cancer A549 cells; test: A549 tumors in NSG mice with or without Hu-PBMCs; format: in vivo; conditions: 1 i.p. dose 10 mg/kg, n=4
Experimental: Subcutaneous tumors were prepared by implanting either mouse colon MC-38 cells (5×10^5 cells/mouse), human lung cancer A549 cells (5×10^6 cells/mouse) or mouse lung cancer M109 cells (0.5×10^5 cells/mouse) in the right flanks of NOD scid gamma mice (NSG: NOD.Cg-Prkdc^scidIl2rg^tm1Wjl/SzJ) purchased from Jacksons Laboratory. From day 7 after tumor implantation, the tumor volumes were measured 2 times/week with a digital caliper. In the case of mouse colon MC-38 cells and human lung cancer A549 cells study in NSG mice, once tumors reached an average volume of 300-400 mm^3, mice were randomly divided into 3 groups (n=4) and 7×10^6 human PBMCs (Stem Cell Technologies Cat #70025) was injected into the tail vein of mice in groups 1 and 3. Seven days later, in the case of mouse colon MC-38 cells study, mAb NMC-C303 antibody (10 mg/kg) was injected intraperitoneally (i.p.) to mice in groups 2 and 3 and human isotype control antibody (BioXCell BP02) into mice in group 1 on days 33 and 35 post tumor inoculation. In the case of human lung cancer A549 cells study, seven days post PBMC injection, mice in group 2 and 3 received 1 intraperitoneal injection of mAb NMC-H103 (VH4/VK3) (10 mg/kg) while mice in group 1 received 1 injection of human isotype control antibody (BioXCell BP02) and tumors were measure 5 days later. […]

B1: NMC-H103 (VH4/VK3): humanized NMC-103 variant, human IgG1, VH4 (SEQ ID NO:299) and VK3 (SEQ ID NO:297) (antibody, V domains shown)
VH: EVQLVESGGGLVQPGPSLRLSCTTSGFTFTHYYMSWVRQAPGKGLEWLGFIRNKAKGYTAEYSASVKGRFTISRDNSKSTLYLQMNSLRAEDTAVYYCARDIGDNWGQGTLVTVSS
VL: DIVMTQTPLSSPVTLGQPASISCRSSKNLLHSNGITYLYWYLQKPGQSPQLLISRVSNLASGVPDRFSGSESGTDFTLKISRVEAEDVGVYFCAQLLELPYTFGGGTKVEIK
modifications: human IgG1 constant regions lacking entries; mAb NMC-H103.VH4Heavy Chain Variable Region; mAb NMC-H103.VK3Light Chain Variable Region
Question: Which “binding to live cells briefly treated with trypsin, flow cytometry” value (OVCAR-3 cells; 7AAD negative) does the source give for B1 here?
Answer: reduced

Question: What about the “binding to live (7AAD negative) cells, flow cytometry” value (OVCAR-3 cells; antibody 1 μg/ml) of the same molecule?
Answer: binding

Question: And the average tumor volume ([1]; NSG mice in presence of Hu-PBMCs)?
Answer: 784 mm^3

Question: And the average tumor volume ([1]; NSG mice in the absence of Hu-PBMCs)?
Answer: 1367 mm^3
